Patent US20150246949A1, “Desmoglein 2 (DSG2) Binding Proteins and Uses Therefor” (UNIVERSITY OF WASHINGTON THROUGH ITS CENTER FOR …, priority 2012, published 2015)
Substitutions are numbered along the chain they refer to. In names and notes the source's numbering stands.

B1: dimeric Ad3 fiber knob mutant D261N (designed binder)
chain: MKVSALKEKVSALKEKVSALKEKVSALKEKVSALKEGSGGGSGGGSGGGSNSIALKNNTLWTGPKPEANCIIEYGKQNPDSKLTLILVKNGGIVNGYVTLMGASDYVNTLFKNKNVSINVELYFDATGHILPDSSSLKTDLELKYKQTADFSARGFMPSTTAYPFVLPNAGTHNENYIFGQCYYKASNGALFPLEVTVMLNKRLPDSRTSYVMTFLWSLNAGLAPETTQATLITSPFTFSYIREDD
B2: F265L (protein)
chain: B1 chain with N188D, F192L
B3: dimeric Ad3 fiber knob mutant F265L (designed binder)
chain: B1 chain with N188D, F192L
B4: wt Ad3 fiber knob without dimerization domain (ligand)
chain: NKLCSKLGNGLTFDSSNSIALKNNTLWTGPKPEANCIIEYGKQNPDSKLTLILVKNGGIVNGYVTLMGASDYVNTLFKNKNVSINVELYFDATGHILPDSSSLKTDLELKYKQTADFSARGFMPSTTAYPFVLPNAGTHNENYIFGQCYYKASDGALFPLEVTVMLNKRLPDSRTSYVMTFLWSLNAGLAPETTQATLITSPFTFSYIREDD
notes: range 108-319; also called wt Ad3knob/noDD; wt Ad3 knob (noDD); not shown: N-terminal 6-His tag of pQE30 and the Gly/Ser linker encoded by primer P1

How the values were obtained:
[1] = target: T1, human DSG2 on cells (HeLa cells; polarized T84 cells) (human, UniProt Q14126 50-1118); test: cell-based or functional assay
T1 sequence: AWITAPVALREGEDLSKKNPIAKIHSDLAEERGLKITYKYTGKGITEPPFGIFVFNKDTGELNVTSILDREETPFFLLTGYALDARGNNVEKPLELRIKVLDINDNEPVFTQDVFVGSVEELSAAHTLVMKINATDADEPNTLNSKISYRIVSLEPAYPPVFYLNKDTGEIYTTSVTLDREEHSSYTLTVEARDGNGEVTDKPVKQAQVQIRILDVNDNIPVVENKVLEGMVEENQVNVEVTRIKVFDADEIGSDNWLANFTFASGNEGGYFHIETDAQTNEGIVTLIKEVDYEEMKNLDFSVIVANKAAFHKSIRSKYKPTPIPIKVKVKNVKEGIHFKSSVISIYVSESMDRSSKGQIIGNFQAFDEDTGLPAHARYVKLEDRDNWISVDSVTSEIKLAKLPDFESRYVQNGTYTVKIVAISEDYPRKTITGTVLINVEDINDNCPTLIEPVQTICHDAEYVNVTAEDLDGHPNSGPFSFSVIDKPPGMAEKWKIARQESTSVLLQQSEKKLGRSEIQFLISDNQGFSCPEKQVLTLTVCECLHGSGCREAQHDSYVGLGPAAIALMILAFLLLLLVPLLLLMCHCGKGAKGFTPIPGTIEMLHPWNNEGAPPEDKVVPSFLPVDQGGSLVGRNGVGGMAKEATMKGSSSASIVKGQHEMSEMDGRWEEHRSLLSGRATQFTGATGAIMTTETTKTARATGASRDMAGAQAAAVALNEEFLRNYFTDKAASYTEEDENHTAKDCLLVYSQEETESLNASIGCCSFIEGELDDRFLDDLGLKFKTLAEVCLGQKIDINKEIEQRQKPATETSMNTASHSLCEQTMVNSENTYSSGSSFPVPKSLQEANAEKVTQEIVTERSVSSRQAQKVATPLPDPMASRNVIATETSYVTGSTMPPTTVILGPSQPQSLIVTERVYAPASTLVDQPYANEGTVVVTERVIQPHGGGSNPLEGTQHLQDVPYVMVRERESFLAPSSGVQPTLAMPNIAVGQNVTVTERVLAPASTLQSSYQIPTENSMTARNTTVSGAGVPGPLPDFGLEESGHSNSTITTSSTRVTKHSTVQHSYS

[2] = target: T1, human DSG2 on cells (HeLa cells; …); test: attachment of 3H-labelled Ad3 virus (competitor) to HeLa cells pre-incubated with the dimeric knob
[3] = target: T2, Recombinant human DSG2 protein (Leinco Technologies) (human, UniProt Q14126 50-609); test: Western blot of dimeric knob (trimer band), soluble recombinant DSG2 as probe, anti-DSG2 mAb
T2 construct: also called soluble DSG2; soluble recombinant DSG2
T2 sequence: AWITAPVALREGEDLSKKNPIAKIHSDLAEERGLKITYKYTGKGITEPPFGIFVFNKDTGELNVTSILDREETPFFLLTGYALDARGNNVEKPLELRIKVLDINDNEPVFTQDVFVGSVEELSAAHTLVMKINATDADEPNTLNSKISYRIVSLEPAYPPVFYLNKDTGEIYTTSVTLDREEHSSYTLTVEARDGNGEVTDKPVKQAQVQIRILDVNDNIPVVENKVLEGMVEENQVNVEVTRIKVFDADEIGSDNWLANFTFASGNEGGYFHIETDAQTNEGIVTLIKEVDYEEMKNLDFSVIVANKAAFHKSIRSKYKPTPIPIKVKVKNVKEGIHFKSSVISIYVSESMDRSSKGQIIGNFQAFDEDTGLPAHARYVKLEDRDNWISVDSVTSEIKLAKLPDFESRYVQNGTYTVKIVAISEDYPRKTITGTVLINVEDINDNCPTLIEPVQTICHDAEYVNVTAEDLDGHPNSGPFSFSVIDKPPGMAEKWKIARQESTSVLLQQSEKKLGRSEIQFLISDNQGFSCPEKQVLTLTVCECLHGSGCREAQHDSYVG

[4] = target: T2, Recombinant human DSG2 protein (Leinco …); test: Western blot of dimeric knob, soluble DSG2 as probe (Table 2: 0% residual binding)
Ad3-GFP virus = test: Competition of Ad3-GFP virus infection on HeLa cells; format: cell-based, adenovirus serotype 3 (Ad3); details: HeLa cells pre-incubated with knob, 100 pfu/cell Ad3-GFP, GFP at 18 hours
Method: FIG. 3. Competition of Ad3 virus by dimerized Ad3 knob mutants. A) Relative attachment of ^3H-labeled Ad3 virus in the presence of dimeric fiber knob mutants. 1.8×10^5 HeLa cells were incubated with Ad3 knob mutants at a concentration of 2.5 and 100 μg/ml on ice for 1 hour. Then 400 pfu/cell of ^3H-Ad3 virus was added on ice for another hour. Unbound virus particles were washed away. Attachment of virus particles incubated with PBS was taken as 100%. N=3. B) Competition of Ad3-GFP virus infection on HeLa cells. 1.5×10^5 HeLa cells were seeded into 24 well plates. Cells were incubated with the Ad3 knob mutants at increasing concentrations for one hour at room temperature. 100 pfu/cell of Ad3-GFP virus were then added and GFP expression was analyzed 18 hours later by flow cytometry. Left panel: percentage of GFP positive cells. Right panel: mean fluorescence intensity. N=3. The standard deviation was less than 10%. C) Relative attachment of ^3H-labeled Ad3 virus in the presence of dimeric fiber knob mutants with multiple mutations. The study was performed as described in […]) The standard deviation was less than 10%. D) Competition of Ad3-GFP virus infection on HeLa cells. The study was performed as described in C) The standard deviation was less than 10%.
FIG. 9. Analysis of dimeric Ad3 fiber knob mutants with increased affinity to DSG2. A) Competition of Ad3-GFP virus infection on HeLa cells with dimeric affinity-enhanced mutant Y250F and JO-1 (dimeric wt Ad3 fiber knob). The experimental setting is as described for FIG. 3C. left panel: percentage of GFP positive cells. Right panel: mean fluorescence intensity. N=3. The standard deviation was less than 10%. […] 100 pfu/cell of Ad3GFP virus were then added and GFP expression was analyzed 18 hours later. […]
Competition studies were performed on HeLa cells, which express DSG2 (42). […] Transduction was measured based on GFP expression (FIG. 3B). […] Dimeric Ad3 knob mutants with combined mutations were also analyzed for their ability to compete with Ad3 virus for attachment (FIG. 3C) and infection (FIG. 3D).

soluble recombinant DSG2 = target: T3, soluble recombinant DSG2 (Homo sapiens, UniProt Q14126); test: Western blot of dimeric Ad3 fiber knob mutants probed with soluble DSG2; format: binding; details: purified dimerized knob mutants
T3 construct: purchased Leinco Technologies, Inc. (St. Louis, Mo.)
T3 sequence (Q14126 50-609 limits assumed): T2 sequence
From the text: FIG. 1. Residues found to be critically involved in binding to DSG2. A) Shown are the amino acid sequences of the Ad3 and Ad14p1 fiber knob. Beta sheets present in the Ad3 knob (PDB accession number 1H7Z_A) and Ad14 knob (PDB: 3F0Y_A) are indicated by lines. Black arrows indicate residues within the Ad3 fiber knob which, when mutated individually, ablate or reduce binding to DSG2. […] B) Schematic structure of dimeric Ad3 fiber knob mutants. The fiber knob domain and one shaft motif was fused through a flexible linker to a homodimerizing K-coil domain (41). The proteins are self-dimerizing and can be purified by His-Ni-NTA affinity chromatography. C-F) Analysis of binding of dimeric Ad3 fiber knob mutants to soluble DSG2. C and D) Coomassie staining. 10 μg of purified Ad3 fiber knob (unboiled) were loaded per lane. Trimeric forms of the fiber knobs are indicated by an arrow. The gel contained SDS and the loading buffer containing DTT, which caused the disassembly of dimers of trimeric fiber knobs as previously reported (41). E and F): Western blot using soluble recombinant DSG2 as a probe, followed by anti-DSG2-mAb and anti-mouse IgG-HRP. For comparison, JO-1 (0.5 μg/lane) is shown. The Western blots were scanned and signals were quantified.
Mini-PROTEAN precast gels (BIO-RAD, Hercules, Calif.) with 4-15% gradient polyacrylamide were used. A total of […] protein mixed with 2× loading buffer (10 mM Tris-HCl, pH6.8, 200 mM DTT, 4% SDS, 20% glycerol, 0.2% bromophenol blue) was loaded per lane. Samples were either boiled (B) for 5 min or loaded unboiled (UB). The following running buffer was used: 25 mM Tris, pH8.3, 0.192 M glycine, 0.1% SDS. After electrophoresis, proteins were transferred to nitrocellulose and incubated with recombinant human DSG2 protein and anti-DSG2 antibodies as described previously (42). The Western blots were scanned and quantified using the ImageJ 1.32 software (National Institutes of Health, Bethesda, Md.). JO-1 band intensity was set as 100%. […]

[5] = target: T2, Recombinant human DSG2 protein (Leinco …); test: SPR (BIAcore 3000), DSG2 immobilised on CM4 chip, knob injected
[6] = target: T2, Recombinant human DSG2 protein (Leinco …); test: SPR (BIAcore 3000), DSG2 immobilised on the sensor chip, knobs injected at 2.5 to 10 µg/ml, BIAeval

| Molecule | Inhibition of infection in the presence of dimeric knob (JO-1 = 100%) [1] | Inhibition of attachment in the presence of dimeric knob (JO-1 = 100%) [2] | Western blot residual DSG2 binding (wtAd3 knob = 100%) [3] | binding result [4] | Competition of Ad3-GFP infection based on GFP expression (Ad3-GFP virus) | DSG2 binding in Western blot compared to JO-1 (soluble recombinant DSG2) | Kd [5] | Kd [6] | koff [6] | kon [6] |
| --- | --- | --- | --- | --- | --- | --- | --- | --- | --- | --- |
| B1 | 5.3% | 45% | 0% | no binding |  |  |  |  |  |  |
| B2 |  |  |  |  | least reduced | almost completely ablated for DSG2 binding |  |  |  |  |
| B3 | 17.6% | 55.6% | 0% | no binding |  |  |  |  |  |  |
| B4 |  |  |  |  |  |  | 10 µM | 10.1 µM | 0.00572 s⁻¹ | 527 M⁻¹ s⁻¹ |
